Data on 1 substance can be found in patent US6881834.

In data set [1] the target is Sp1 (UniProt P08047). Kind of data set: cell_activity. Conditions: luciferase induction in Drosophila cells.
The target in data set [2] is Sp3 (UniProt Q02447). Nature of the data set: cell_activity. Conditions: luciferase induction in Drosophila cells.
Chain of Sp3 (Q02447 whole entry): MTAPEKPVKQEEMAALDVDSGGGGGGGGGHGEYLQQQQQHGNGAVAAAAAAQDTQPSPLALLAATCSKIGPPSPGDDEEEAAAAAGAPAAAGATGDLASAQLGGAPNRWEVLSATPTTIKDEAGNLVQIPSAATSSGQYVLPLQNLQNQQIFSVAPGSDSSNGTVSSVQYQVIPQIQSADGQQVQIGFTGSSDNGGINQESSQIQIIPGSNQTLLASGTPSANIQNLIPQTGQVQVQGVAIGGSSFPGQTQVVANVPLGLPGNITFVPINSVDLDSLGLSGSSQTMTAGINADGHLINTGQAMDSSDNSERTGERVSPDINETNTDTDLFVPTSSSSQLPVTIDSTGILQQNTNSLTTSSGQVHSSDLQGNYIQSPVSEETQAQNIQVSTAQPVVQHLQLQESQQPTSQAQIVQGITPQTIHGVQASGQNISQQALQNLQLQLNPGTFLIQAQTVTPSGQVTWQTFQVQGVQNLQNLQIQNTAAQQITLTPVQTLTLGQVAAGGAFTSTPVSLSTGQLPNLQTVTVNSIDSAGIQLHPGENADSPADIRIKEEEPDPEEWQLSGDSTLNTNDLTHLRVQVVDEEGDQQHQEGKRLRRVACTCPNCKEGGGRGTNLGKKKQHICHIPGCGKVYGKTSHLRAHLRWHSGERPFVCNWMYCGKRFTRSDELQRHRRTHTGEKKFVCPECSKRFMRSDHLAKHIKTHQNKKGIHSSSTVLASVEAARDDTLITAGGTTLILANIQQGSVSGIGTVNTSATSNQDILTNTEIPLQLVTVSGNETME

Chain of Sp1 (P08047 2-785): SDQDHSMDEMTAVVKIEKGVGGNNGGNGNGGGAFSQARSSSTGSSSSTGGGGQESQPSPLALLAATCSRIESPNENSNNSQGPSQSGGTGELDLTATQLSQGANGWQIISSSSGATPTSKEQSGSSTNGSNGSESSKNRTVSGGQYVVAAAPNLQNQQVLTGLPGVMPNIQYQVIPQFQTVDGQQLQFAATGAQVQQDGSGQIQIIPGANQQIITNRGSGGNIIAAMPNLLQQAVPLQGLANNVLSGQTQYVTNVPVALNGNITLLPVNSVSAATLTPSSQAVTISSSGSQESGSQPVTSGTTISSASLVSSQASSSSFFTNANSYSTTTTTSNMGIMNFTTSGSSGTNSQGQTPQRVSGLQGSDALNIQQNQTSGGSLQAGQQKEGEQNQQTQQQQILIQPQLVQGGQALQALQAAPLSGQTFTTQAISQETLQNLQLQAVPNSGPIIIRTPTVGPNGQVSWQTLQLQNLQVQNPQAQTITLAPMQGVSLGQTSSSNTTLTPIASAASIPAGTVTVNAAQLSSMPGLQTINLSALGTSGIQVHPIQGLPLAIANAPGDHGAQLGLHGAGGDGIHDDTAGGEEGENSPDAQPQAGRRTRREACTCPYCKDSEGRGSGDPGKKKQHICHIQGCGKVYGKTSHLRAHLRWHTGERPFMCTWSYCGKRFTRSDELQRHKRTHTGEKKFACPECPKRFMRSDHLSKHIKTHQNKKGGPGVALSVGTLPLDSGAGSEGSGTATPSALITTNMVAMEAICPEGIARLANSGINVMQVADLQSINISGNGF

Turning to CD11c promoter -196/+30 (CD11c-luc), the activity was determined as 19.5 fold in data set [1] and 18.9 fold in data set [2].
